Reference: the Human Domainome abundance scans (Beltran et al. 2025)
± gives the uncertainty stated by the source.

B1: Lysine-specific demethylase 5C, residues 319 to 373; numbered along this chain, P41229 (parent)
chain: AQFIESYVCRMCSRGDEDDKLLLCDGCDDNYHIFCLLPPLPEIPKGVWRCPKCVM

Variants of: B1
Assay: abundance fitness (aPCA) (normalised: wild type 0, dead -1); higher = more abundant; growth selection in yeast, the domain comes from the species named
Conditions: Homo sapiens

Variant | abundance fitness
Y7W | -0.266 ± 0.17
Y7E | 0.193 ± 0.19
Y7S | 0.139 ± 0.091
C53Y | -1.01 ± 0.3
I33L | -0.496 ± 0.5
D18P | 0.176 ± 0.09
D18V | 0.034 ± 0.078
D25Q | -0.218 ± 0.16
D25T | -0.016 ± 0.1
D25L | -0.381 ± 0.083
D25F | -0.394 ± 0.12
F34P | -0.291 ± 0.15
F34G | 0.046 ± 0.11
V54Y | -0.064 ± 0.26
V54N | -0.262 ± 0.28
V54W | -0.836 ± 0.36
V54F | -0.479 ± 0.24
V54I | 0.017 ± 0.12
V54A | -0.151 ± 0.11
D28I | 0.327 ± 0.39
L23W | -0.224 ± 0.12
L23Y | -0.141 ± 0.24
L23N | 0.099 ± 0.11
L23D | 0.084 ± 0.16

Variant | abundance fitness
L23M | 0.235 ± 0.085
L23T | 0.094 ± 0.082
L21T | -0.164 ± 0.09
L21H | -0.458 ± 0.11
L37H | -0.023 ± 0.22
L37T | -0.03 ± 0.18
L37E | -0.073 ± 0.14
L37F | -0.193 ± 0.17
K52Q | -0.065 ± 0.19
K52F | -0.14 ± 0.23
R10S | -0.28 ± 0.24
R10P | -0.394 ± 0.29
R10A | -0.148 ± 0.12
E42Y | -0.125 ± 0.16
E42G | -0.157 ± 0.15
E42N | -0.034 ± 0.17
E42C | -0.245 ± 0.15
C27D | -0.646 ± 0.29
C27G | -0.825 ± 0.13
C27L | -0.842 ± 0.16
C27N | -0.806 ± 0.22
G15T | 0.029 ± 0.076
G15A | -0.037 ± 0.084
G15L | -0.113 ± 0.064

Variant | abundance fitness
G15E | 0.049 ± 0.12
G15D | -0.058 ± 0.12
M11L | -0.264 ± 0.093
M11G | -0.072 ± 0.11
M11T | -0.211 ± 0.16
M11P | -0.669 ± 0.17
M11E | 0.171 ± 0.14
M11Q | 0.045 ± 0.14
M11N | 0.045 ± 0.21
H32M | -1.02 ± 0.16
I4D | -0.058 ± 0.18
I4T | 0.201 ± 0.13
D16N | 0.131 ± 0.18
D16S | 0.104 ± 0.093
D16W | -0.351 ± 0.18
F3K | 0.016 ± 0.14
F3S | 0.06 ± 0.1
F3Y | -0.043 ± 0.19
F3C | -0.193 ± 0.14
F3I | -0.17 ± 0.17
F3T | -0.046 ± 0.17
F3N | 0.182 ± 0.17
C12T | -0.683 ± 0.26
C12W | -0.853 ± 0.2

Variant | abundance fitness
C12H | -0.825 ± 0.26
C12R | -0.586 ± 0.15
C12E | -0.797 ± 0.33
K45W | -0.446 ± 0.2
K45M | -0.469 ± 0.28
K45A | -0.176 ± 0.15
K45V | -0.179 ± 0.15
K45T | -0.003 ± 0.17
K45F | -0.491 ± 0.21
K45Q | -0.277 ± 0.16
C50K | -1 ± 0.27
C50P | -0.987 ± 0.46
C50G | -1.01 ± 0.15
C50Y | -0.761 ± 0.28
C50R | -0.926 ± 0.14
C50Q | -0.71 ± 0.22
E5I | -0.283 ± 0.17
E5Y | -0.162 ± 0.18
E5K | 0.036 ± 0.19
P51V | -0.153 ± 0.13
P51T | -0.467 ± 0.17
P51L | -0.671 ± 0.14
P51Q | -0.136 ± 0.16
P51M | -0.092 ± 0.16

Variant | abundance fitness
P51C | -0.427 ± 0.19
P51A | -0.258 ± 0.17
P41W | -0.36 ± 0.13
P41S | 0.047 ± 0.094
S6Q | -0.409 ± 0.22
S6V | -0.377 ± 0.19
S6I | -0.445 ± 0.2
S6N | 0.183 ± 0.19
S6D | -0.523 ± 0.37
S6C | -0.361 ± 0.19
S6P | -0.097 ± 0.17
S6R | 0.001 ± 0.11
S6E | -0.08 ± 0.21
R49T | -0.055 ± 0.16
R49I | -0.176 ± 0.2
D19Q | -0.014 ± 0.13
D19K | 0.064 ± 0.094
D19P | -0.15 ± 0.098
L36W | -0.237 ± 0.2
L36P | -0.613 ± 0.2
L36T | -0.16 ± 0.15
L36N | -0.576 ± 0.25
S13C | -0.171 ± 0.14
S13G | 0.074 ± 0.1

Variant | abundance fitness
K20N | -0.327 ± 0.23
K20F | -0.16 ± 0.17
K20W | -0.317 ± 0.24
K20Q | -0.093 ± 0.14
K20I | -0.489 ± 0.19
W48L | -0.849 ± 0.15
W48F | -0.253 ± 0.22
W48K | -0.635 ± 0.18
Y31Q | -0.727 ± 0.14
L22D | -1.1 ± 0.37
L22C | -0.052 ± 0.13
L22S | -0.474 ± 0.092
L22V | -0.163 ± 0.11
V47T | -0.101 ± 0.15
V47L | -0.359 ± 0.16
V47H | -0.064 ± 0.22
V47P | -0.247 ± 0.24
V47Y | -0.058 ± 0.19
V8H | -0.11 ± 0.12
V8Y | -0.157 ± 0.2
V8C | -0.258 ± 0.16
V8K | 0.254 ± 0.19
V8A | -0.092 ± 0.097
V8M | -0.052 ± 0.15

Variant | abundance fitness
G26Q | -0.129 ± 0.17
G26H | 0.092 ± 0.17
G26M | -0.178 ± 0.17
G26V | -0.217 ± 0.12
E17F | -0.062 ± 0.23
E17C | 0.261 ± 0.19
G46P | -0.42 ± 0.31
N30G | 0.052 ± 0.073
N30H | -0.176 ± 0.25
N30L | -0.238 ± 0.092
N30F | -0.077 ± 0.18
N30S | -0.068 ± 0.089
N30M | -0.206 ± 0.13
P39C | -0.264 ± 0.15
P39R | -0.164 ± 0.12
P38F | -0.564 ± 0.16
P38I | -0.62 ± 0.31
P38V | -0.1 ± 0.1
D29V | -0.228 ± 0.19
I43Q | 0.076 ± 0.14
I43R | -0.022 ± 0.092
I43S | -0.082 ± 0.11
I43Y | -0.333 ± 0.16
